Data from patent US20140030295A1.

Biological target: Full-length human SIRT1 (His-tagged) (human) (UniProt Q96EB6)
Assay: cell-based or functional assay

Chain of Full-length human SIRT1 (His-tagged) (human) (Q96EB6 2-747): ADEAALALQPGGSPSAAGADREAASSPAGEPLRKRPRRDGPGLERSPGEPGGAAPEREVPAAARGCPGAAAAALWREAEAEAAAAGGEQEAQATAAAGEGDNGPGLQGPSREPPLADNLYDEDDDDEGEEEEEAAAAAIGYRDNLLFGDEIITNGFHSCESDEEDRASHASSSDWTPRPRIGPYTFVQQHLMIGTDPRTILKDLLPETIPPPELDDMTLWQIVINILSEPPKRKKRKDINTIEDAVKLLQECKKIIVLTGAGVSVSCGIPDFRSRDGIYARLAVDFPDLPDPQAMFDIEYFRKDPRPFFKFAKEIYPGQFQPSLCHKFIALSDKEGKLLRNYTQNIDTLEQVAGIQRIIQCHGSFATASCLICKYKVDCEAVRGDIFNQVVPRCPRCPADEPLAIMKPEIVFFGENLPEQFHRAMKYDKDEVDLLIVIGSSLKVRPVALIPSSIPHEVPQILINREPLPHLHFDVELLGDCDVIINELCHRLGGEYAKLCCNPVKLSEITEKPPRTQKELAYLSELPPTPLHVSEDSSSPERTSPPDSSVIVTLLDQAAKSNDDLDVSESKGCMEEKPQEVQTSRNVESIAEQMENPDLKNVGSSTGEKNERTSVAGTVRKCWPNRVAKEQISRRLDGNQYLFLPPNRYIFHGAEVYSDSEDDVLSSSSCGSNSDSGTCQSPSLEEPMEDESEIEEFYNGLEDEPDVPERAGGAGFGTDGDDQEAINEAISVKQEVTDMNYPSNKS

synthetic Tat (aa 1-72)
Tat concentration required for half maximal inhibition (IC50) of SIRT1; fluorescent deacetylation assay with acetylated p53 peptide (aa 379-382): 3.5 µM
